The values that follow come from paper PMC9294231, “gC1qR/C1qBP/HABP-1: Structural Analysis of the Trimeric Core Region, Interactions With a Novel Panel of Monoclonal Antibodies, and Their Influence on Binding to FXII” (Frontiers in Immunology, 2022).

In assay [1] the target is gC1qR-D1 (human) (UniProt Q07021). Put plainly: SEC; gel filtration on Superdex S200 in PBS (pH 7.4); solution behaviour shown in Figure S1 (not shown to me).
For assay [2], the target named is gC1qR-D2 (human) (UniProt Q07021). The assay is described as above.
The target of assay [3] is HKH-20 HKH-20 peptide (Homo sapiens) (UniProt P01042). Put plainly: ITC. Conditions: cited from earlier work.
Assay [4] has as its target T1, wild-type gC1qR (residues 74-282) (human, UniProt Q07021 74-282).
T1 construct: gC1qR/C1qBP/HABP-1, human, residues 74-282 (the mature form of the 282-residue pre-pro protein); Expressed from vector pT7HMT; the tag was removed with TEV protease; also called C1qBP; HABP-1; source: E. coli BL21(DE3), purified (NiNTA, TEV digestion, gel filtration Superdex S200)
T1 sequence (looked up): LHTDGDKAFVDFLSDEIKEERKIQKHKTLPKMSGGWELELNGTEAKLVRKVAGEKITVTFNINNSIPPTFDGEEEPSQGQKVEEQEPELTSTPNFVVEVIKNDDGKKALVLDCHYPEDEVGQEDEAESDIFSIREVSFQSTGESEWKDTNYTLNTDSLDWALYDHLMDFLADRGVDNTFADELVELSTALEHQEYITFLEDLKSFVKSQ
Description: SEC; gel filtration on Superdex S200 in PBS (pH 7.4); solution behaviour shown in Figure S1 (not shown to me).

The target in assay [5] is gC1qR-D1 (loop 1 deletion mutant) (human) (UniProt Q07021). Description: SEC; analytical gel filtration of purified gC1qR proteins on Superdex 200 Increase 10/300 GL, compared to size standards (670, 66, 13 kDa).
For assay [6], the target named is gC1qR-avi, enzymatically biotinylated (human) (UniProt Q07021). Put plainly: SPR; enzymatically biotinylated gC1qR-avi or gC1qR-DD-avi captured to 100 RU on an SA chip; FXII or FXIIa injected 1.6 to 800 nM; 25°C, HBS-T with 50 µM ZnCl2; ligand heterogeneity model with two independent binding sites; apparent. (In general: In SPR one partner is held on a chip, and binding of the other changes the refractive index at the surface.)

Assay [7] addresses gC1qR-DD-avi, enzymatically biotinylated (human) (UniProt Q07021). The assay is described as above.
The target in assay [8] is gC1qR-DD (human) (UniProt Q07021). Put plainly: SEC; gel filtration on Superdex S200 in PBS (pH 7.4); solution behaviour shown in Figure S1 (not shown to me).
Assay [9] has as its target wild-type gC1qR (human) (UniProt Q07021). Description: SEC; analytical gel filtration (Superdex 200 Increase 10/300 GL) of purified FXII, wild-type gC1qR and gC1qR/FXII in a Zn++-containing buffer, compared to size standards.
Assay [10] has the same target. Put plainly: SEC; analytical gel filtration of purified gC1qR proteins on Superdex 200 Increase 10/300 GL, compared to size standards (670, 66, 13 kDa).
For assay [11], the target named is gC1qR-DD (double loop deletion mutant) (human) (UniProt Q07021). The assay is described as above.
The target of assay [12] is gC1qR-D2 (loop 2 deletion mutant) (human) (UniProt Q07021). The assay is described as above.
Assay [13] deals with T1, wild-type gC1qR (residues 74-282). Put plainly: SPR; gC1qR proteins amine-coupled to a CMD200M chip (gC1qR 361 RU, D1 487 RU, D2 360 RU, DD 874 RU); HKH-20 injected 46.9 nM to 10 µM; 25°C, HBS-T (20 mM HEPES pH 7.4, 140 mM NaCl, 0.005% Tween-20); affinity (dose/response) model, apparent KD. Conditions: both partners purified.
Assay [14] has as its target gC1qR-D2 (human) (UniProt Q07021). Described as above.
Assay [15] deals with gC1qR-D1 (human) (UniProt Q07021). The description is as above.

With “gC1qR-D1 (from UniProt Q07021 74-138; Q07021 164-282) (natural protein)”, in assay [1], the stoichiometry N – broadly, the number of molecules, sites or subunits per partner or assembly – is 3.
With “gC1qR-D2 (from UniProt Q07021 74-189; Q07021 202-282) (natural protein)”, in assay [2], the stoichiometry N amounted to 3.
For gC1qR (from UniProt Q07021), in assay [3], the Kd is 6300 nM.
“wild-type gC1qR (residues 74-282) (from UniProt Q07021 74-282) (natural protein; other documents disagree on this pair)” displayed a stoichiometry N in assay [4] of 3.
In assay [5], “gC1qR-D1 (loop 1 deletion mutant) (from UniProt Q07021 74-282) (domain or fragment)” registered a stoichiometry N of 3.
Consider “native coagulation factor XII (FXII) (natural protein)”, for which, in assay [6], the KD-1 (first binding site) is 4.85 nM, the KD-2 (second binding site) came to 97.6 nM, the ka-1 (first binding site) amounted to 676000 M⁻¹ s⁻¹ and the ka-2 (second binding site) is 23700 M⁻¹ s⁻¹. Also, in assay [6], the kd-1 (first binding site) stood at 0.00316 s⁻¹ and the kd-2 (second binding site) is 0.0023 s⁻¹. Moreover, in assay [7], the KD-1 (first binding site) was found to be 1.69 nM, the KD-2 (second binding site) is 26.4 nM, the ka-1 (first binding site) is 674000 M⁻¹ s⁻¹ and the ka-2 (second binding site) stood at 34800 M⁻¹ s⁻¹. For the same molecule, in assay [7], the kd-1 (first binding site) worked out at 0.00114 s⁻¹ and the kd-2 (second binding site) was 0.00091 s⁻¹.
In the case of “gC1qR-DD (from UniProt Q07021 74-138; Q07021 164-189; Q07021 202-282) (natural protein)”, the stoichiometry N in assay [8] came out at 3.
As to Factor XII (native) (natural protein), in assay [9], the stoichiometry N (FXII monomer per gC1qR trimer) was 1.
Turning to “wild-type gC1qR (from UniProt Q07021 74-282) (domain or fragment; other documents disagree on this pair)”, in assay [10], the stoichiometry N was 3.
Molecule “gC1qR-DD (double loop deletion mutant) (from UniProt Q07021 74-282) (domain or fragment)” came in with a stoichiometry N in [11] of 3.
In the case of activated Factor XIIa (FXIIa) (enzyme), in assay [6], the KD-1 (first binding site) came to 0.27 nM, the KD-2 (second binding site) amounted to 134 nM, the ka-1 (first binding site) was found to be 408000 M⁻¹ s⁻¹ and the ka-2 (second binding site) was 48200 M⁻¹ s⁻¹. In assay [6], the kd-1 (first binding site) was determined as 9e-05 s⁻¹ and the kd-2 (second binding site) stood at 0.0063 s⁻¹. Besides, in assay [7], the KD-1 (first binding site) was 0.12 nM, the KD-2 (second binding site) turned out to be 178 nM, the ka-1 (first binding site) turned out to be 1.13e+06 M⁻¹ s⁻¹ and the ka-2 (second binding site) came to 63700 M⁻¹ s⁻¹. Moreover, in assay [7], the kd-1 (first binding site) amounted to 0.000147 s⁻¹ and the kd-2 (second binding site) amounted to 0.0112 s⁻¹.
In turn, “gC1qR-D2 (loop 2 deletion mutant) (from UniProt Q07021 74-282) (domain or fragment)” gave a stoichiometry N in [12] of 3.

B1: peptide HKH-20 (peptide)
peptide: HKHGHGHGKHKNKGKKNGKH
notes: The discussion speaks of peptides derived from HMWK residues 493-516 in general; also called HKH-20 peptide; source: synthetic peptide (GenScript)
Consider B1, for which the Kd in assay [13] came to 8700 nM; in assay [14], 10000 nM; in assay [15], 10000 nM.
